Results as given in paper PMC11463501 (bioRxiv, 2024).
Changes are numbered by the printed parent chain. In names and notes the source's numbering stands.

Key:
[1] = biological target: T1, PTg S5 subunit (Bordetella pertussis, UniProt P04981 35-133); assay: cryo-EM structure
T1 sequence: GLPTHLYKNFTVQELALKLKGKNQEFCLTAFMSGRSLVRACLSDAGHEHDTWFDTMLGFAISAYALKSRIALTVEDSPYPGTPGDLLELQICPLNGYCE

[2] = biological target: Pertussis toxin (PT), enzymatically active (Bordetella pertussis; strain of bought …, UniProt P04977;P04978;P04979;P0A3R5;P04981); assay: ELISA
[3] = biological target: PTg S2 subunit (Bordetella pertussis, UniProt P04978); assay: cryo-EM structure
[4] = biological target: PTg S3 subunit (Bordetella pertussis, UniProt P04979); assay: cryo-EM structure
[5] = biological target: PTg S5 subunit (Bordetella pertussis, UniProt P04981); assay: cryo-EM structure

Pertussis toxin (PT), enzymatically active, sequence (P04978 28-226, chain 2 of 3): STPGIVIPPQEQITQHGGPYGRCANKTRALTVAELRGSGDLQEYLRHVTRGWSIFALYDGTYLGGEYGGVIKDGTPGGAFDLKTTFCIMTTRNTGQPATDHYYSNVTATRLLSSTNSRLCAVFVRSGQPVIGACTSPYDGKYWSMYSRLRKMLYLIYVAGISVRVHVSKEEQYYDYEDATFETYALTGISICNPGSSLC
Pertussis toxin (PT), enzymatically active, sequence (P04979 29-227, chain 3 of 3): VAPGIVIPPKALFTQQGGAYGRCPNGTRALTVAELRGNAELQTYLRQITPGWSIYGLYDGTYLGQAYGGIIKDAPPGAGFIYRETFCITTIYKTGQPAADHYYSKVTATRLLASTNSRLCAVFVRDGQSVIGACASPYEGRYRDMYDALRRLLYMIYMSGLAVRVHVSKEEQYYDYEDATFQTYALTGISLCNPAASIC
Pertussis toxin (PT), enzymatically active, sequence (P0A3R5 43-152, chain 4 of 3): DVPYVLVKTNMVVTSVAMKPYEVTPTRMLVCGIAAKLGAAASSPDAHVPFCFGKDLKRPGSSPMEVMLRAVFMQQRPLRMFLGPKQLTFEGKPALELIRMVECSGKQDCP
PTg S3 subunit, sequence (P04979 29-227): as the sequence (P04979 29-227, chain 3 of 3) above
PTg S2 subunit, sequence (P04978 28-226): as the sequence (P04978 28-226, chain 2 of 3) above

B1: PTg S1 subunit ([change], [change]) (natural protein)
chain: DDPPATVYKYDSRPPEDVFQNGFTAWGNNDNVLDHLTGRSCQVGSSNSAFVSTSSSRRYTEVYLEHRMQEAVEAERAGRGTGHFIGYIYEVRADNNFYGAASSYFEYVDTYGDNAGRILAGALATYQSGYLAHRRIPPENIRRVTRVYHNGITGETTTTEYSNARYVSQQTRANPNPYTSRRSVASIVGTLVRMAPVIGACMARQAESSEAMAAWSERAGEAMVLVYYESIAYSF
B1: binds [1].

B2: hu1B7mut IgG (hu1B7 heavy chain S56A, Q61A, Q64A) (antibody, V domains shown)
VH: QVQLVQSGAEVKKPGASVKVSCKASGYKFTSYWMHWVRQAPGQGLEWIGNIFPGSGATNYAAKFAGRVTLTVDTSTSTAYMELSSLRSEDTAVYYCTRWLSGAYFDYWGQGTTVTVSS
VL: QIVLTQSPATLSVSPGERVTLTCSASSSVSFMYWYQQKPGRAPKPLIYLTSNLPSGVPARFSGSGSGTSYTLTINSLEAEDAATYYCQQWSSHPPTFGSGTKLEIK
B2: binds [2].

B3: hu1B7 IgG (antibody, V domains shown)
VH: B2 VH with A57S, A62Q, A65Q
VL: B2 VL
B3: binds [2].

B4: hu11E6 Fab (Fab, V domains shown)
VH: EVQVVESGGGLVQPGRSLRLSCTTSGFTFTDYYVSWVRQAPGKALEWLGFIRNKVNGYTTEFSSSVKGRFTISRDNSKSILYLQMNSLKIEDTAVYYCARVSYYGRGWYFDYWGQGTTLTVSS
VL: DIVMTQSPSSLSASVGDRVTISCRASQDIDNYLSWFQQKPGGTVKLLIYYTSRLHSGVPSRFSGSGSGTDYTLTISSLQPEDIATYFCQQGNTFPWTFGGGTKLEIK
B4: binds [3]; binds [4].

B5: hu1B7 Fab (Fab, V domains shown)
VH: B2 VH with A57S, A62Q, A65Q
VL: B2 VL
B5: binds [5].
